# Reference: paper PMC2195830
# B1: phosphorylated B cell linker protein (BLNK), from BCR-stimulated DT40 cells (natural protein)
# chain: MDKLNKLAVPAGEKFRKLQKMVHDIKKNESGIINKFKKFQNEQVALICKTGKDTWDRLKKKPPPSLPRRDYASEHADNEEEQWSDDFDSDYENPDGHSDSEMYVVPSEENPDDSYEPPPSEQEKKKIPSSFPISRGEYADNRTSHHQLPPINKPLPSTPSSALPRPKKPSLPSPAAKPKLPLKPRECSDDEDNYIVPVDNDDDNYIEPTESSTPPPAKPPVNRFMKPPAKSALPTPPKPSLASDMQEVYEVPEEEEELSPPPVTRFTKPLPATRAQNAEHSHMHSMTRESPKLDASRNILPLPRNRLHPKTDHEANNNDENHSFSNTQESKFPPGAAPSPLPRALKKTSNAVNPAKPCLPSRDTFTVNEDKPTAADRRRGSSHEFPLPPLPSGTPKSSLQKPLVLPKVPEAPSRALGTSPHSSISSISSTADQDAGVHSKAWYAATCDRKTAEDALYRSNKDGSFLIRKSSGQDSRQPYTLVVFYNRRVYNIPIRFIESTRQYALGREKCGEERFDSVAEIVENHQHTSLVLIDSQNNTKDSTKLKYIVRVS
# modifications: phosphotyrosine (sites not defined in the paper)
# Molecular target: phospholipase C (PLC)-γ2 (chicken (endogenous in DT40))
# Test: co-IP
binder,measurement,value
B1,fold increase of the association in Cbl-deficient against wild-type DT40 cells,3 fold
